For nine substances, binding signal (z-score (mean of top ten 7-mers)) results are on record in article PMC12990809.

Holding throughout (assay): pulldown
One data set deals with DDX53 (Homo sapiens) (UniProt Q86TM3). The conditions noted are these: 20 nM protein, 1.5 uM RNA pool; 20 mM HEPES pH 7.8, 70 mM KCl, 10 mM NaCl, 10% glycerol, 2 mM DTT, 0.1 ug/uL BSA; 30 min, 4 C.
The next data set addresses T1, mex3c (Danio rerio) (UniProt A0A8M1REM5).
T1 sequence: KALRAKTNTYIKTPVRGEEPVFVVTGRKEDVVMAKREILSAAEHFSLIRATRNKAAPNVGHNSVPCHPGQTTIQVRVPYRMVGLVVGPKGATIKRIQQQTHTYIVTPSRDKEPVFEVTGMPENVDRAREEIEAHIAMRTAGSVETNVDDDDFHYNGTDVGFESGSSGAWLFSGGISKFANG
The conditions noted are these: 20 nM protein, 1.5 uM RNA pool; 20 mM HEPES pH 7.8, 70 mM KCl, 10 mM NaCl, 10% glycerol, 2 mM DTT, 0.1 ug/uL BSA; 30 min, 4 C.

Data set [1] concerns the target RBPMS2 (Monodelphis domestica) (UniProt A0A5F8GJ20). The conditions noted are these: 20 nM protein, 1.5 uM RNA pool; 20 mM HEPES pH 7.8, 70 mM KCl, 10 mM NaCl, 10% glycerol, 2 mM DTT, 0.1 ug/uL BSA; 30 min, 4 C.
Data set [2] addresses T2, LmjF.30.1110 (Leishmania major) (UniProt Q4Q7J2).
T2 sequence: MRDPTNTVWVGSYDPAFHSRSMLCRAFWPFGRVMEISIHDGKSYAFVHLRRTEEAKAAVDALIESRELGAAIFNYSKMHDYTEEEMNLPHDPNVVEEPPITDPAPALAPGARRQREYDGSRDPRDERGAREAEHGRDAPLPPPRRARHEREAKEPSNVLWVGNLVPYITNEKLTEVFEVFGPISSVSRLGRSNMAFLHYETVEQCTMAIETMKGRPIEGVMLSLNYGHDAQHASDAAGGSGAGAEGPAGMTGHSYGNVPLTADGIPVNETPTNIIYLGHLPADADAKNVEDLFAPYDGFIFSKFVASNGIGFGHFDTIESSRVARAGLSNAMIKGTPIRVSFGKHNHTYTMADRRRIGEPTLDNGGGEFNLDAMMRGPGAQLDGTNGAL
The note with it: 20 nM protein, 1.5 uM RNA pool; 20 mM HEPES pH 7.8, 70 mM KCl, 10 mM NaCl, 10% glycerol, 2 mM DTT, 0.1 ug/uL BSA; 30 min, 4 C.

Data set [3] concerns the target T3, BATDEDRAFT_13807 (Batrachochytrium dendrobatidis) (UniProt F4NYD0).
T3 sequence: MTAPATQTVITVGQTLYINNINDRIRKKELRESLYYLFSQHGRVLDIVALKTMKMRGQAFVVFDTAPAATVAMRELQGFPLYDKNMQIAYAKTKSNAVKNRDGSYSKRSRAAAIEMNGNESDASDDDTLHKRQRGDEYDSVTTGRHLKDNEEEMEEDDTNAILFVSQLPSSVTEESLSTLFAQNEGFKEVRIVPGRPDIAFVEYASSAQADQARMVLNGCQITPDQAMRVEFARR
The conditions noted are these: 20 nM protein, 1.5 uM RNA pool; 20 mM HEPES pH 7.8, 70 mM KCl, 10 mM NaCl, 10% glycerol, 2 mM DTT, 0.1 ug/uL BSA; 30 min, 4 C.

The target in data set [4] is T4, LmjF.29.1370 (Leishmania major) (UniProt E9ADZ6).
T4 sequence: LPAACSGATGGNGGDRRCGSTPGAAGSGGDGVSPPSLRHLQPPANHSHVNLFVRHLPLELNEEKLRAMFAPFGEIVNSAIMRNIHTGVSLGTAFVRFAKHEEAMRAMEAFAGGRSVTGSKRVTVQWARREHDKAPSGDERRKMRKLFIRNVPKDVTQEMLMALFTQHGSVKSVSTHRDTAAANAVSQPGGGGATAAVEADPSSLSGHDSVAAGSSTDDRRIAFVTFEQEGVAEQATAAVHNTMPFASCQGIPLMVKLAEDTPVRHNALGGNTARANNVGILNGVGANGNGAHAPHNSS
The conditions noted are these: 20 nM protein, 1.5 uM RNA pool; 20 mM HEPES pH 7.8, 70 mM KCl, 10 mM NaCl, 10% glycerol, 2 mM DTT, 0.1 ug/uL BSA; 30 min, 4 C.

Data set [5] deals with T5, Tb927.3.3960 (Trypanosoma brucei) (UniProt Q57WD2).
T5 sequence: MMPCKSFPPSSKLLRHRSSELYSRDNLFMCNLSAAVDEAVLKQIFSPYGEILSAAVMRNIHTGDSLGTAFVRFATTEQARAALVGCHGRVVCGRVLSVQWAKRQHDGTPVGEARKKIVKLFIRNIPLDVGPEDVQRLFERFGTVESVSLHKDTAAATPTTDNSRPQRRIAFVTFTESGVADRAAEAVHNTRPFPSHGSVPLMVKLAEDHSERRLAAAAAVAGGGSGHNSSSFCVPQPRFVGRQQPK
The note with it: 20 nM protein, 1.5 uM RNA pool; 20 mM HEPES pH 7.8, 70 mM KCl, 10 mM NaCl, 10% glycerol, 2 mM DTT, 0.1 ug/uL BSA; 30 min, 4 C.

The target of data set [6] is T6, Tb11.01.5690 S174N (Trypanosoma brucei) (UniProt Q382C7).
T6 sequence: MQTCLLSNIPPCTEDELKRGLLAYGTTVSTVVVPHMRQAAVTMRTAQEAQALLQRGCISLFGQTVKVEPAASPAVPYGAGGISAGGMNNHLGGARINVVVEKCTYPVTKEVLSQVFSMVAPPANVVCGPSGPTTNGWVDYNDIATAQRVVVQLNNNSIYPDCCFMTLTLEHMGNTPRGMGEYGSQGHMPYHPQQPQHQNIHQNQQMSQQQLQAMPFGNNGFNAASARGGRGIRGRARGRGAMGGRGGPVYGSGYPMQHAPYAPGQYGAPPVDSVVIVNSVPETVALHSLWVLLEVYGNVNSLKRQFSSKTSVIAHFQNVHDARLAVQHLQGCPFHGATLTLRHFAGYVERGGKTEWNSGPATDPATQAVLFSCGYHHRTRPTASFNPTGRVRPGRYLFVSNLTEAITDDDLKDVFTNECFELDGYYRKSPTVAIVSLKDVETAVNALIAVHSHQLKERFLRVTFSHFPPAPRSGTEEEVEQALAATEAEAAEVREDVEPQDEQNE
The conditions noted are these: 20 nM protein, 1.5 uM RNA pool; 20 mM HEPES pH 7.8, 70 mM KCl, 10 mM NaCl, 10% glycerol, 2 mM DTT, 0.1 ug/uL BSA; 30 min, 4 C.

In the next data set the target is T7, KHDRBS3 (Homo sapiens) (UniProt O75525).
T7 sequence: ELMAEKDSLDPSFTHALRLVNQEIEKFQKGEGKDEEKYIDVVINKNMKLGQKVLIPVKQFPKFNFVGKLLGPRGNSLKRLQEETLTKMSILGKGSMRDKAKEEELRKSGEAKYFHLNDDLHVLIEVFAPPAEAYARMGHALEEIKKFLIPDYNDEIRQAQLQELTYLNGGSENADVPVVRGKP
The note with it: 20 nM protein, 1.5 uM RNA pool; 20 mM HEPES pH 7.8, 70 mM KCl, 10 mM NaCl, 10% glycerol, 2 mM DTT, 0.1 ug/uL BSA; 30 min, 4 C (protocol of this paper; not …); cited from earlier work.

Sequence of RBPMS2 (Monodelphis domestica) (A0A5F8GJ20 entry or part of it): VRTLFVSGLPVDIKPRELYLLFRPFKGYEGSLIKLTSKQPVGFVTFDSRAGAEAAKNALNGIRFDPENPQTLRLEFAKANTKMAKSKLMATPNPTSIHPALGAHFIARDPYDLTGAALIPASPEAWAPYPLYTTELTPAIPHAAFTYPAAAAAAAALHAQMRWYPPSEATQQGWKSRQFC
Sequence of DDX53 (Homo sapiens) (Q86TM3 whole entry): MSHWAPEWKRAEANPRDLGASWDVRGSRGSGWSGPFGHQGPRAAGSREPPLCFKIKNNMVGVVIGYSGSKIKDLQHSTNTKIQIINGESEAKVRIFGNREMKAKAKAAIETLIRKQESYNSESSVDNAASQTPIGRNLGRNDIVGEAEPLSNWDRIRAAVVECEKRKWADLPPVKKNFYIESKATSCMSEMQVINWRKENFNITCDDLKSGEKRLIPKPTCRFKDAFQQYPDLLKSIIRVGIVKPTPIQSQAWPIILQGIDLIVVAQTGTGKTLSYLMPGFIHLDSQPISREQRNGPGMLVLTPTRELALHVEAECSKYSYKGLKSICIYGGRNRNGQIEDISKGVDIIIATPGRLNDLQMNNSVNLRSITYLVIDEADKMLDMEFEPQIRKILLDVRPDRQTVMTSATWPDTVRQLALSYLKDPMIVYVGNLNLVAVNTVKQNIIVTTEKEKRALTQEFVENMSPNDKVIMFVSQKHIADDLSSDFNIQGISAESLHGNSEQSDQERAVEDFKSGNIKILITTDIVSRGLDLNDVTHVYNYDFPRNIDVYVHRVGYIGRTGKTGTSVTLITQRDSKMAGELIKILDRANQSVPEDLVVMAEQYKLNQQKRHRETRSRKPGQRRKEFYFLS

Regarding AGAAUAA [RNAcompete motif RNCMPT00743], in the data set with DDX53 (Homo sapiens), the binding signal (z-score (mean of top ten 7-mers)) was determined as 6.26.

Consider AGAGUA [RNAcompete motif RNCMPT00727], for which the binding signal (z-score (mean of top ten 7-mers)) in the data set with mex3c (Danio rerio) was 10.1.

As for ANCACG [RNAcompete motif RNCMPT00757], in data set [1], the binding signal (z-score (mean of top ten 7-mers)) worked out at 8.74.

In data set [2], AUGAUG [RNAcompete motif RNCMPT00763] registered a binding signal (z-score (mean of top ten 7-mers)) of 10.7.

AUNGCAC [RNAcompete motif RNCMPT00739] yielded a binding signal (z-score (mean of top ten 7-mers)) in data set [3] of 7.82.

CAUAGU [RNAcompete motif RNCMPT00762] gave a binding signal (z-score (mean of top ten 7-mers)) in data set [4] of 29.8.

Take CAUUGU [RNAcompete motif RNCMPT00735]: the binding signal (z-score (mean of top ten 7-mers)) in [5] was determined as 23.

In [6], GAAAGAAA [RNAcompete motif RNCMPT00773] registered a binding signal (z-score (mean of top ten 7-mers)) of 9.18.

As for GAUAAAC [RNAcompete motif RNCMPT00034], the binding signal (z-score (mean of top ten 7-mers)) with KHDRBS3 (Homo sapiens) is 9.52.
